Experimental findings from the Immune Epitope Database (IEDB) are described below.

In one assay the target is HLA-B*53:01. Briefly: IEDB peptide-MHC binding, purified MHC/competitive/radioactivity; filed as Kd, often an IC50 or EC50 that approximates it; ≥ and ≤ were set here for values at or beyond the usual limits of such assays.
The target of a further assay is HLA-B*54:01. The description is as above.
Assay [1] addresses HLA-B*07:02. The assay is described as above.
In another assay the target is HLA-B*51:01. Described as above.
Another assay has as its target HLA-B*35:01. The assay is described as above.
Assay [2] deals with HLA-B*15:01. Description: IEDB peptide-MHC binding, purified MHC/direct/fluorescence; filed as Kd, often an IC50 or EC50 that approximates it; ≥ and ≤ were set here for values at or beyond the usual limits of such assays. The settings on record: source organism: Giardia lamblia ATCC 50803.
The target in another assay is HLA-B*18:01. Described as above.
The next assay concerns the target HLA-B*57:01. Described as above.
The next assay has as its target HLA-B*46:01. Described as above. The settings on record: source organism: Giardia lamblia ATCC 50803.
The target in the next assay is HLA-A*03:01. Described as above.
The target in a further assay is HLA-A*01:01. Described as above.
The target in assay [3] is HLA-A*02:01. The assay is described as above.
The target in assay [4] is HLA-B*07:02. The description is as above.
The target of a further assay is HLA-A*69:01. Described as above.
In a further assay the target is HLA-A*68:02. The description is as above.
The target of the next assay is HLA-A*11:01. The assay is described as above.
A further assay deals with HLA-B*40:01. The assay is described as above.
The target of the next assay is HLA-B*58:01. Described as above.
Another assay addresses HLA-B*48:01. Described as above.
Assay [5] has as its target HLA-A*31:01. The description is as above.
A further assay has as its target HLA-B*27:05. The assay is described as above.
The target of assay [6] is HLA-A*31:01. Description: IEDB peptide-MHC binding, purified MHC/competitive/fluorescence; filed as Kd, often an IC50 or EC50 that approximates it; ≥ and ≤ were set here for values at or beyond the usual limits of such assays. The settings on record: source organism: West Nile virus.
Assay [7] concerns the target HLA-B*15:01. Briefly: IEDB peptide-MHC binding, purified MHC/competitive/fluorescence; ≥ and ≤ were set here for values at or beyond the usual limits of such assays.
The target in assay [8] is HLA-A*02:01. Described as above. The settings on record: source organism: Zaire ebolavirus.
The target of the next assay is HLA-A*24:02. The description is as above.
The target in another assay is HLA-B*15:17. Description: IEDB peptide-MHC binding, purified MHC/direct/fluorescence; filed as Kd, often an IC50 or EC50 that approximates it; ≥ and ≤ were set here for values at or beyond the usual limits of such assays. The following applies: source organism: Camelpox virus M-96.
The target in a further assay is HLA-B*44:02. The description is as above. The settings on record: source organism: Camelpox virus M-96.
Where [9] appears, read: source organism: Triticum aestivum.
[10] abbreviates: source organism: Giardia lamblia ATCC 50803.
The mark [11] stands for this setting: source organism: West Nile virus.
[12] abbreviates: source organism: Vaccinia virus WR.
The mark [13] stands for this setting: source organism: Zaire ebolavirus.
[14] abbreviates: source organism: SARS coronavirus Tor2.
[15] abbreviates: source organism: Camelpox virus M-96.

Take QPYPQSQPQY: the dissociation constant (Kd) (as a rule, the free concentration of one partner at which half of the binding sites on the other are occupied at equilibrium, for simple one-to-one binding) in the assay with HLA-B*53:01 (setting [9]) was at least 21.2 µM; with HLA-B*54:01 (setting [9]), at least 69.9 µM; with HLA-B*07:02 [1] (setting [9]) it was at least 69.6 µM; in the assay with HLA-B*51:01 (setting [9]), at least 69.6 µM; with HLA-B*35:01 (setting [9]), 0.323 µM.
For the sequence RIGGVLIFR, the dissociation constant (Kd) with HLA-B*15:01 [2] is at least 20 µM; with HLA-B*18:01 (setting [10]), at least 20 µM; with HLA-B*57:01 (setting [10]) it was at least 20 µM; in the assay with HLA-B*46:01 it was at least 20 µM; with HLA-A*03:01 (setting [10]), 0.0695 µM; in the assay with HLA-A*01:01 (setting [10]) it was at least 20 µM. Besides, the Kd with HLA-A*02:01 [3] (setting [10]) was at least 20 µM; with HLA-B*07:02 [4] (setting [10]), at least 20 µM; with HLA-A*69:01 (setting [10]), at least 20 µM; in the assay with HLA-A*68:02 (setting [10]) it was at least 20 µM; in the assay with HLA-A*11:01 (setting [10]) it was 0.0325 µM; in the assay with HLA-B*40:01 (setting [10]) it was at least 20 µM. In addition, the dissociation constant Kd with HLA-B*58:01 (setting [10]) is 6 µM; with HLA-B*48:01 (setting [10]) it was at least 20 µM; with HLA-A*31:01 [5] (setting [10]), 0.011 µM; with HLA-B*27:05 (setting [10]), at least 5 µM.
Turning to RLCYGGPWK, the Kd with HLA-A*31:01 [6] was at least 20 µM; with HLA-A*03:01 (setting [11]), 0.517 µM; with HLA-A*11:01 (setting [11]), 0.358 µM.
With RPKILSMINY, the Kd with HLA-B*53:01 (setting [12]) was 1.12 µM; with HLA-B*54:01 (setting [12]), 2.92 µM; with HLA-B*07:02 [1] (setting [12]), 3.17 µM; with HLA-B*51:01 (setting [12]) it was 8.9 µM; with HLA-B*35:01 (setting [12]) it was 5.74 µM.
For the sequence TIAGVAGLI, the concentration for half-maximal inhibition (IC50) (usually the point on the concentration scale where inhibition reaches its midpoint) was at least 165 µM with HLA-B*15:01 [7] (setting [13]), 6.06 µM with HLA-A*02:01 [8] and 2.56 µM in the assay with HLA-A*24:02 (setting [13]).
With VDYGLVSKF, the IC50 with HLA-B*15:01 [7] (setting [12]) was at least 278 µM; with HLA-A*24:02 (setting [12]), 3.51 µM.
In the case of VPMEKLKAL, the Kd in the assay with HLA-B*53:01 (setting [14]) is at least 39.4 µM; in the assay with HLA-B*54:01 (setting [14]), 11.7 µM; in the assay with HLA-B*07:02 [1] (setting [14]), 0.0135 µM; in the assay with HLA-B*51:01 (setting [14]) it was 2.18 µM; in the assay with HLA-B*35:01 (setting [14]), 6.61 µM.
For VPNITISSNA, the equilibrium dissociation constant (Kd) is at least 69.9 µM in the assay with HLA-B*53:01 (setting [12]); 0.0166 µM with HLA-B*54:01 (setting [12]); 4.2 µM with HLA-B*07:02 [1] (setting [12]); at least 69.6 µM with HLA-B*51:01 (setting [12]); at least 69.9 µM in the assay with HLA-B*35:01 (setting [12]).
For YERGNIIIF, the Kd with HLA-B*18:01 (setting [15]) is 0.0319 µM; in the assay with HLA-B*57:01 (setting [15]), at least 20 µM; in the assay with HLA-B*15:17, at least 20 µM; with HLA-A*01:01 (setting [15]), at least 20 µM; in the assay with HLA-A*02:01 [3] (setting [15]), at least 20 µM; with HLA-B*07:02 [4] (setting [15]) it was at least 20 µM. The Kd is at least 20 µM in the assay with HLA-A*69:01 (setting [15]); at least 20 µM in the assay with HLA-A*68:02 (setting [15]); at least 20 µM in the assay with HLA-A*11:01 (setting [15]); 0.154 µM in the assay with HLA-B*40:01 (setting [15]); at least 20 µM with HLA-B*58:01 (setting [15]); at least 20 µM in the assay with HLA-B*44:02. The Kd in the assay with HLA-B*48:01 (setting [15]), with HLA-A*31:01 [5] (setting [15]) and with HLA-B*27:05 (setting [15]) was at least 20 µM throughout.
